Reference: PMC4764565, “Synergistic integration of Netrin and ephrin axon guidance signals by spinal motor neurons” (eLife, 2015)

Target: T1, EphB2-GFP (mouse, UniProt P54763 19-986)
T1 construct: ephrin receptor EphB2 (plasmid Ephb2-GFP, Kao et al., 2009); also called EphB2 fused to GFP; wild-type EphB2-GFP; source: HEK293 (ATCC CRL 1573), transfected (calcium phosphate), in lysate
T1 sequence (looked up): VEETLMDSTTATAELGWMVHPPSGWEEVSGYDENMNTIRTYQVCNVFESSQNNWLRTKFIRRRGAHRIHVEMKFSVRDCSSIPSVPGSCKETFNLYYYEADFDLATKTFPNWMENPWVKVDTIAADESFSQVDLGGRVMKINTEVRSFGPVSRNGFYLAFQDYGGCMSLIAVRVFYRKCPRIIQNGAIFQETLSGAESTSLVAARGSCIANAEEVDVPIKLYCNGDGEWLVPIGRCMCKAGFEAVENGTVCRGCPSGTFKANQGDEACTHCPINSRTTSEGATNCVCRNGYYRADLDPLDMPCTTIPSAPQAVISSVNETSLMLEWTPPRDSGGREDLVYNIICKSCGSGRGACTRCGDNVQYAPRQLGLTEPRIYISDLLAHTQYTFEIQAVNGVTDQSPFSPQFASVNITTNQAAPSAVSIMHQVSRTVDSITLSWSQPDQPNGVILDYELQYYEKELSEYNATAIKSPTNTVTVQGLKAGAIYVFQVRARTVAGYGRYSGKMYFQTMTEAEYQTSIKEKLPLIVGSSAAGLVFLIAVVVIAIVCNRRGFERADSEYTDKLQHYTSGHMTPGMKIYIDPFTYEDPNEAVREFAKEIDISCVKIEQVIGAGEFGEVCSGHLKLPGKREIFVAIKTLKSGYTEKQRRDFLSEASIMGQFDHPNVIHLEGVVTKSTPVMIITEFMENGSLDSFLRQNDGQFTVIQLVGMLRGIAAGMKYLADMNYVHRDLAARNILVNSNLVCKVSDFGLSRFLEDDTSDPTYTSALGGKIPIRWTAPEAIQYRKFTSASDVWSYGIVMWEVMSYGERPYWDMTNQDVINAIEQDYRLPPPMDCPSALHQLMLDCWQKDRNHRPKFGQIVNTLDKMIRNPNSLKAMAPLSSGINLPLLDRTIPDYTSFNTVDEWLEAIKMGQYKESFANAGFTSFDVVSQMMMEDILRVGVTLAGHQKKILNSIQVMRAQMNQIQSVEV
Experiment: co-IP; anti-GFP antibody on ProteinA/G agarose, overnight, pre-cleared lysates of co-transfected HEK293 cells (10mM Tris-Cl pH 8, 137 mM NaCl, 2mM EDTA, 1% NP40); blot for Myc; in the ligand experiments cells were starved 2 hr in OPTIMEM and incubated 15 min at 37°C with pre-clustered Fc, eB2-Fc or eA3-Fc (1.5 μg/ml), Netrin-1 (250 ng/ml) or eB2-Fc+Netrin-1 before lysis
Conditions: partners not purified

B1: Unc5c-Myc (receptor)
chain: not shown
notes: Netrin receptor Unc5c, mouse (plasmid mUnc5c-Myc, gift of Franck Polleux); also called mUnc5c-Myc; source: HEK293 (ATCC CRL 1573), transfected (calcium phosphate), in lysate
- fold increase of the association after pre-incubation with eB2-Fc (against Fc): ~22 fold
